From US20240376185A1 (SMIVET B V, published 2024)

T1: recombinant tetanus toxin fragment C (rTTC) (Clostridium tetani, UniProt P04958 865-1315)
T1 sequence: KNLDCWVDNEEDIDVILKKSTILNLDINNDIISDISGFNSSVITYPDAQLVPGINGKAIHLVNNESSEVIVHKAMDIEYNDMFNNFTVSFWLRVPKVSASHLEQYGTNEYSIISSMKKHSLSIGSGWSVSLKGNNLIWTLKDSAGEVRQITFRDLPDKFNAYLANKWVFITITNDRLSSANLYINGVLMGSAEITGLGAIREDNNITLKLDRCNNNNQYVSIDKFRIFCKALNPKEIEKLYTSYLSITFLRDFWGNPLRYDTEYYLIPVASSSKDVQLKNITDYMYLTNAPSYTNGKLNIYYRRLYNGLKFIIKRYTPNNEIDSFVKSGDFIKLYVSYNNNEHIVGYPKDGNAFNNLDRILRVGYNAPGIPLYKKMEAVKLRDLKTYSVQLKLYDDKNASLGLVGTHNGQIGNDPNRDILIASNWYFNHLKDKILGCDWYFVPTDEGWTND

B1: SVT06-GS2-SVG13M4-H6 (bispecific antibody)
chain: QVQLQESGGGSVQAGGSLRLSCTASELSYDDYTIAWFRRAAGEGRVEDGEGVASITKSYDRAYDNKINYGHSVKGRFTISRDNAKNTVYLQMTDLLPSDTAVYYCALDITPPGGVGASLTEGFLFDYWGQGTQVTVSSGGGGSGGGSEVQLVESGGGLVQPGGSLRLSCEASGFTFDDYGMSWVRQAPGKGLEWVSSLTPNGGSTYYADSVKGRFTISRDNAKNTLYLQMNSLKPEDTALYYCAKNSYYGAMDYWGQGTQVTVSSHHHHHH
B2: SVT15-3FW4M-GS2-SVG13M4-H6 (bispecific antibody)
chain: QVQLQESGGGLVQTGGSLRLSCRASGRAFANYHFGWFRQAPGKDREFVASISWKGGSTYYANFALGRFTSSVDRAESSVYLQMSGLTPEDTATYYCAAHDGGDWNYHTGMDYWGQGTQVTVSSGGGGSGGGSEVQLVESGGGLVQPGGSLRLSCEASGFTFDDYGMSWVRQAPGKGLEWVSSLTPNGGSTYYADSVKGRFTISRDNAKNTLYLQMNSLKPEDTALYYCAKNSYYGAMDYWGQGTQVTVSSHHHHHH
B3: SVT02 (VHH)
VHH: QVQLQQSGGGSVQAGGSLRLSCVGPQRTFSTYGMGWFRQAPGKEREFVAGINYKGDTTYYADSVKGRFTISRDNAKNTLYLQMDSLKPEDRAVYQCARKGGLGGDYRDAGQYRYWGQGTQVTVSS
B4: SVT02L (VHH)
VHH: B3 VHH
notes: yeast-produced
B5: SVT15-3FW4M-GS2-SVG06M4-H6 (bispecific antibody)
chain: QVQLQESGGGLVQTGGSLRLSCRASGRAFANYHFGWFRQAPGKDREFVASISWKGGSTYYANFALGRFTSSVDRAESSVYLQMSGLTPEDTATYYCAAHDGGDWNYHTGMDYWGQGTQVTVSSGGGGSGGGSEVQLVESGGALVQPGGSLRLSCAASGFPFSAYDMTWVRQAPGQGLEWVSTIHKSGGITTYADSVKGRFTISRDNAKNTLYLQMNNLESEDTAVYYCAKALRAHNSDYVGRNALGSWGQGTQVTVSSHHHHHH
B6: SVT03 (VHH)
VHH: QVQLQQSGGGSVQTGDSLTLSCTASGGSLNSYFVGWFRQSGGKEREFVSVIARTGRSTSYADSVKGRFTISRDNAANTVFLTMNNLRPDDTAIYYCAAVGRPGVLHLTQSYDYWGQGTQVTVSS
B7: SVT03L (VHH)
VHH: B6 VHH
notes: yeast-produced
B8: SVT02-GS2-SVA12M2-H6 (bispecific antibody)
chain: QVQLQQSGGGSVQAGGSLRLSCVGPQRTFSTYGMGWFRQAPGKEREFVAGINYKGDTTYYADSVKGRFTISRDNAKNTLYLQMDSLKPEDRAVYQCARKGGLGGDYRDAGQYRYWGQGTQVTVSSGGGGSGGGSEVQLVESGGGLVQAGGSLRLSCAASGRTFSYYPMAWFRQAPGQEREFVAAIIGADTTYYADSLKGRFTISRDNAKNMVYLQMNSLKPEDTAVYYCAARNTYWSDVYYREGQYTNWGQGTQVTVSSHHHHHH
B9: SVT02-GS2-SVG13M4-H6 (bispecific antibody)
chain: QVQLQQSGGGSVQAGGSLRLSCVGPQRTFSTYGMGWFRQAPGKEREFVAGINYKGDTTYYADSVKGRFTISRDNAKNTLYLQMDSLKPEDRAVYQCARKGGLGGDYRDAGQYRYWGQGTQVTVSSGGGGSGGGSEVQLVESGGGLVQPGGSLRLSCEASGFTFDDYGMSWVRQAPGKGLEWVSSLTPNGGSTYYADSVKGRFTISRDNAKNTLYLQMNSLKPEDTALYYCAKNSYYGAMDYWGQGTQVTVSSHHHHHH

Experiments:
[1] = biological target: T2, tetanus neurotoxin (TeNT), authentic tetanus holotoxin (Clostridium tetani, UniProt P04958 2-1315); assay: ELISA: directly coated TeNT, anti-his6 PO
[2] = biological target: T2, tetanus neurotoxin (TeNT), authentic …; assay: bridging ELISA: coated TeNT, SDA, biotinylated TeNT, StrepPO (bivalent binding)
Target sequence in this assay (P04958 2-457 limits assumed, chain 1 of 2): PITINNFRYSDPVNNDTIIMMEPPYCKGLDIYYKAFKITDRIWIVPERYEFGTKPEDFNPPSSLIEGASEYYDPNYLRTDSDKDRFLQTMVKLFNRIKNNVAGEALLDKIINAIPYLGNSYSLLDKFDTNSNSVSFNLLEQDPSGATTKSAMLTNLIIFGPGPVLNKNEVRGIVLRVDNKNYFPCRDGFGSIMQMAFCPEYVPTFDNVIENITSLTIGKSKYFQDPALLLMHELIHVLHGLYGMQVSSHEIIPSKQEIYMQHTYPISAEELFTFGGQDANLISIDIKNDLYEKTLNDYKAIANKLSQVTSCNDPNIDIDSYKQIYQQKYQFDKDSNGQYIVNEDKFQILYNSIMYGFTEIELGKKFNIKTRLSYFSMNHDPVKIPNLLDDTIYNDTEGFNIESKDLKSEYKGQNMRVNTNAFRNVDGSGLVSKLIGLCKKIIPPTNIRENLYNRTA
Target sequence in this assay (P04958 458-1315 limits assumed, chain 2 of 2): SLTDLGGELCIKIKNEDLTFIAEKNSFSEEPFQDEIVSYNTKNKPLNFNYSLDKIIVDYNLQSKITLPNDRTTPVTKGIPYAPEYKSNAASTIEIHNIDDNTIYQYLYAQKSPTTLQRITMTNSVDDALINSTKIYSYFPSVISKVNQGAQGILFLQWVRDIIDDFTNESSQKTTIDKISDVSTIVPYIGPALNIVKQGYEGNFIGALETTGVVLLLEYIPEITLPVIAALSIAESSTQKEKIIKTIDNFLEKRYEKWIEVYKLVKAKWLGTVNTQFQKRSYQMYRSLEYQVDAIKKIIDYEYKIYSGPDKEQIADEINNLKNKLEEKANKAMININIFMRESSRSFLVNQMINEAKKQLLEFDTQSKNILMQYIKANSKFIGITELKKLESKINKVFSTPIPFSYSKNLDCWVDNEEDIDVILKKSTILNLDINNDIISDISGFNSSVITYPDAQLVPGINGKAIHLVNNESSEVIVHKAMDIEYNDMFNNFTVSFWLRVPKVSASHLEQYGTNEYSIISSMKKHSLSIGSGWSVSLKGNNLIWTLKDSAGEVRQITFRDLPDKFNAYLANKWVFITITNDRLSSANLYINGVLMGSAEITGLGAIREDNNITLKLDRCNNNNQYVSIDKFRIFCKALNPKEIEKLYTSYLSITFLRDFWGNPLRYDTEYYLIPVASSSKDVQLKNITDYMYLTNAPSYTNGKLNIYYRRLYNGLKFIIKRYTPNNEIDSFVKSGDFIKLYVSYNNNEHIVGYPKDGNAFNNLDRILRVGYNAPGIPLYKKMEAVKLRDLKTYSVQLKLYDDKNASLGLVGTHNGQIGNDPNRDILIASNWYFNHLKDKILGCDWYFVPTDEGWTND

[3] = biological target: dog IgG (chrompure dog IgG) (dog)
[4] = biological target: T2, tetanus neurotoxin (TeNT), authentic …; assay: ELISA: directly coated TeNT, goat anti-llama Ig PO
Target sequence in this assay (P04958 2-457 limits assumed, chain 1 of 2): as the sequence (P04958 2-457 limits assumed, chain 1 of 2) above
Target sequence in this assay (P04958 458-1315 limits assumed, chain 2 of 2): as the sequence (P04958 458-1315 limits assumed, chain 2 of 2) above

[5] = biological target: T2, tetanus neurotoxin (TeNT), authentic …; assay: ELISA: directly coated TeNT, goat anti-llama Ig PO; remark: listed apart in the source
Target sequence in this assay (P04958 2-457 limits assumed, chain 1 of 2): as the sequence (P04958 2-457 limits assumed, chain 1 of 2) above
Target sequence in this assay (P04958 458-1315 limits assumed, chain 2 of 2): as the sequence (P04958 458-1315 limits assumed, chain 2 of 2) above

[6] = biological target: T2, tetanus neurotoxin (TeNT), authentic …; assay: bridging ELISA: coated dog IgG, SDA, biotinylated TeNT, StrepPO
Target sequence in this assay (P04958 2-457 limits assumed, chain 1 of 2): as the sequence (P04958 2-457 limits assumed, chain 1 of 2) above
Target sequence in this assay (P04958 458-1315 limits assumed, chain 2 of 2): as the sequence (P04958 458-1315 limits assumed, chain 2 of 2) above

[7] = biological target: dog IgG (chrompure dog IgG) (dog); remark: listed apart in the source
[8] = biological target: T2, tetanus neurotoxin (TeNT), authentic …; assay: GT1b-TeNT inhibition ELISA
Target sequence in this assay (P04958 2-457 limits assumed, chain 1 of 2): as the sequence (P04958 2-457 limits assumed, chain 1 of 2) above
Target sequence in this assay (P04958 458-1315 limits assumed, chain 2 of 2): as the sequence (P04958 458-1315 limits assumed, chain 2 of 2) above

[9] = biological target: T2, tetanus neurotoxin (TeNT), authentic …; assay: ELISA: directly coated TeNT, anti-his6 PO; remark: listed apart in the source
Target sequence in this assay (P04958 2-457 limits assumed, chain 1 of 2): as the sequence (P04958 2-457 limits assumed, chain 1 of 2) above
Target sequence in this assay (P04958 458-1315 limits assumed, chain 2 of 2): as the sequence (P04958 458-1315 limits assumed, chain 2 of 2) above

[10] = biological target: T2, tetanus neurotoxin (TeNT), authentic …; assay: cell-based or functional assay
[11] = biological target: T2, tetanus neurotoxin (TeNT), authentic …; assay: BLI (Octet Red96): biotinylated TeNT on SA sensor, SDA as analyte
[12] = biological target: T2, tetanus neurotoxin (TeNT), authentic …; assay: bridging ELISA: coated dog IgG, SDA, biotinylated TeNT, StrepPO; remark: listed apart in the source
[13] = biological target: T2, tetanus neurotoxin (TeNT), authentic …; assay: GT1b-TeNT inhibition ELISA; remark: listed apart in the source
[14] = biological target: T2, tetanus neurotoxin (TeNT), authentic …; assay: bridging ELISA: coated TeNT, SDA, biotinylated TeNT, StrepPO (bivalent binding); remark: listed apart in the source
[15] = biological target: T3, tetanus neurotoxin (TeNT), authentic tetanus holotoxin (Clostridium tetani, UniProt P04958 2-1315); assay: ELISA, cAb-TT2 captured TeNT, E. coli supernatant
[16] = biological target: T1, recombinant tetanus toxin fragment C …; assay: ELISA, directly coated rTTC
[17] = biological target: T3, tetanus neurotoxin (TeNT), authentic …; assay: GT1b-TeNT inhibition ELISA (no SDA: 1.302, 1.257)
[18] = biological target: T3, tetanus neurotoxin (TeNT), authentic …; assay: ELISA, directly coated TeNT, E. coli supernatant
[19] = biological target: T1, recombinant tetanus toxin fragment C …; assay: ELISA, directly coated rTTC, E. coli supernatant
[20] = biological target: T4, horse albumin (horse Alb) (horse, UniProt P35747 25-607); assay: bridging ELISA: cAb-TT2-captured TeNT, SDA, biotinylated horse Alb, StrepPO
T4 sequence (P35747 25-607 limits assumed): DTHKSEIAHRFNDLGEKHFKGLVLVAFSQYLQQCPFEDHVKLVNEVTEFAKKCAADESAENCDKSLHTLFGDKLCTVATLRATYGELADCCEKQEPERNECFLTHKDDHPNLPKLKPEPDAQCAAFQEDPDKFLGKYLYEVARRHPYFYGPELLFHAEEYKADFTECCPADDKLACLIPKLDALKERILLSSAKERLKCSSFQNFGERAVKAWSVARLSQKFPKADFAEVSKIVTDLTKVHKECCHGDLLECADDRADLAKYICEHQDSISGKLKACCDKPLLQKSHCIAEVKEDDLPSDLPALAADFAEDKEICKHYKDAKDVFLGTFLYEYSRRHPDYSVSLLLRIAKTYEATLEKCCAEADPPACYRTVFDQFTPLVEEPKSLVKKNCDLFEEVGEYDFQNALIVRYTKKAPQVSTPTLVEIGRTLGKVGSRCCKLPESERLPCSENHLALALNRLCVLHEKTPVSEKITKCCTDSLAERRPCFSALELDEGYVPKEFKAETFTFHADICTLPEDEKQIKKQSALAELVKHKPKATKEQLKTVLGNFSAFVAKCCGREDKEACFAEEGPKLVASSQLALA

[21] = biological target: T4, horse albumin (horse Alb); assay: as above; remark: listed apart in the source
[22] = biological target: T5, dog albumin (dog Alb) (dog, UniProt P49822 25-608); assay: ELISA: coated dog Alb, anti-his6 PO
T5 construct: also called Canine albumin
T5 sequence (P49822 25-608 limits assumed): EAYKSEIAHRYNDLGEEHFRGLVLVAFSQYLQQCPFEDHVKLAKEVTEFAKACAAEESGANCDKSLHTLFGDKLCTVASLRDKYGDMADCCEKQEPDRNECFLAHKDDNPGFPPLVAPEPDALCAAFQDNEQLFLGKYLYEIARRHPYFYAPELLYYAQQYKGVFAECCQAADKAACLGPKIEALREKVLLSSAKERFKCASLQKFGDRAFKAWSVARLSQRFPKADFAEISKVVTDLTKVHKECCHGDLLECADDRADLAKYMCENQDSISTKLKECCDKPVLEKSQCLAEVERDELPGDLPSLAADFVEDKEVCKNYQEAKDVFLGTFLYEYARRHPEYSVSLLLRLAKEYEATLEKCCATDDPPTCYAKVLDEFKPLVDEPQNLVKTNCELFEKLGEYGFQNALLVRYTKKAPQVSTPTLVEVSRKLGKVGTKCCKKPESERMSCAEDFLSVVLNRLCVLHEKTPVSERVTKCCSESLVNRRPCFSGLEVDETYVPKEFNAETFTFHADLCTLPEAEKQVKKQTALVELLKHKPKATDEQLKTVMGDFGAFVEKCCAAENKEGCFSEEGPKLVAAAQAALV

[23] = biological target: T5, dog albumin (dog Alb); assay: ELISA: coated dog Alb, anti-his6 PO; remark: listed apart in the source

| Binder | Effective SDA Concentration at A450 0.15 [1] [ng/mL] | Effective SDA Concentration at A450 0.3 [2] [ng/mL] | maximal absorbance value [3] [A450] | Effective SDA Concentration at A450 0.15 [4] [ng/mL] | maximal absorbance value [5] [A450] | Effective SDA Concentration at A450 0.3 [6] [ng/mL] | minimal absorbance value (GT1b-TeNT inhibition) [8] [A450] | maximal absorbance value [9] [A450] | Endpoint dilution factor [10] | SDA concentration providing full protection [10] [nM] | Kd [11] [nM] | koff [11] [s⁻¹] | kon [11] [M⁻¹ s⁻¹] | maximal absorbance value [12] [A450] | Effective SDA Concentration at A450 0.56 [13] [ng/mL] | maximal absorbance value [14] [A450] | binding result [16] | other results |
| --- | --- | --- | --- | --- | --- | --- | --- | --- | --- | --- | --- | --- | --- | --- | --- | --- | --- | --- |
| B1 | 3.4 | 9.6 | 1.18 | 2 | 1.2 | < 0.49 | 0.22 | 1.44 | 2.4 | 1000 | 0.123 | 8.24e-05 | 670000 | 1.61 | 93 | 0.98 |  | Effective SDA Concentration at A450 0.2 [7]: 46 ng/mL; Potency IU/mg [10]: 1.04 IU/mg |
| B2 | 4.9 | 23 | 1 | 2 | 1.16 | 2.2 | 0.13 | 1.51 | 2.8 | 500 | 0.0158 | 6.77e-06 | 429000 | 1.47 | 77 | 0.78 |  | Effective SDA Concentration at A450 0.2 [7]: 63 ng/mL; Potency IU/mg [10]: 1.21 IU/mg |
| B3 |  |  |  |  |  |  |  |  |  |  |  |  |  |  |  |  | no binding (tested: tenfold diluted supernatant) | absorbance at 450 nm [15]: 0.511 A450; absorbance at 450 nm [17]: 1.34 A450; absorbance at 450 nm [18]: 0.078 A450; absorbance at 450 nm [19]: 0.06 A450 |
| B4 |  |  |  |  |  |  |  |  |  |  |  |  |  |  |  |  | no binding |  |
| B5 | 37 | > 1000 | 0.07 | 4.3 | 1.23 | 8.3 | 0.12 | 0.37 |  |  |  |  |  | 1.3 | 131 | 0.29 |  |  |
| B6 |  |  |  |  |  |  |  |  |  |  |  |  |  |  |  |  | no binding (tested: tenfold diluted supernatant) | absorbance at 450 nm [15]: 0.534 A450; absorbance at 450 nm [17]: 1.29 A450; absorbance at 450 nm [18]: 0.091 A450; absorbance at 450 nm [19]: 0.061 A450 |
| B7 |  |  |  |  |  |  |  |  |  |  |  |  |  |  |  |  | no binding |  |
| B8 |  |  |  |  |  |  |  |  |  |  |  |  |  |  |  |  |  | Effective SDA Concentration at A450 0.7 [20]: 11 ng/mL; maximal absorbance value [21]: 1.1 A450; Effective SDA Concentration at A450 0.2 [22]: 13 ng/mL; maximal absorbance value [23]: 1.91 A450 |
| B9 | > 1000 | > 1000 | 0.18 | > 1000 | 0.09 | 9.1 | 0.77 | 0.06 | < 1 | > 1000 | 0.0987 | 0.000121 | 1.23e+06 | 1.32 | > 1000 | 0.19 |  |  |
